Results reported in PMC2955292 (Chemistry & biology, 2010).

Target: E. coli ClpP (Escherichia coli, UniProt P0A6G7)
Settings: Figure S1A; SDS-PAGE

E. coli ClpP, sequence (P0A6G7 15-207): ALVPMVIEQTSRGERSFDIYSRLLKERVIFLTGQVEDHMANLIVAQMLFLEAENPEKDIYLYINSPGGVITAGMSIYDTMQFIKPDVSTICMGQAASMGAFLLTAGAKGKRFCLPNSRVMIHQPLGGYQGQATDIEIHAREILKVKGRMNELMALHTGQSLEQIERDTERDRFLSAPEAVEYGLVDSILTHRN

B1: ClpA: AAA+ family ATPase that assembles into hexameric rings and binds ClpP (protein)
chain: MLNQELELSLNMAFARAREHRHEFMTVEHLLLALLSNPSAREALEACSVDLVALRQELEAFIEQTTPVLPASEEERDTQPTLSFQRVLQRAVFHVQSSGRNEVTGANVLVAIFSEQESQAAYLLRKHEVSRLDVVNFISHGTRKDEPTQSSDPGSQPNSEEQAGGEERMENFTTNLNQLARVGGIDPLIGREKELERAIQVLCRRRKNNPLLVGESGVGKTAIAEGLAWRIVQGDVPEVMADCTIYSLDIGSLLAGTKYRGDFEKRFKALLKQLEQDTNSILFIDEIHTIIGAGAASGGQVDAANLIKPLLSSGKIRVIGSTTYQEFSNIFEKDRALARRFQKIDITEPSIEETVQIINGLKPKYEAHHDVRYTAKAVRAAVELAVKYINDRHLPDKAIDVIDEAGARARLMPVSKRKKTVNVADIESVVARIARIPEKSVSQSDRDTLKNLGDRLKMLVFGQDKAIEALTEAIKMARAGLGHEHKPVGSFLFAGPTGVGKTEVTVQLSKALGIELLRFDMSEYMERHTVSRLIGAPPGYVGFDQGGLLTDAVIKHPHAVLLLDEIEKAHPDVFNILLQVMDNGTLTDNNGRKADFRNVVLVMTTNAGVRETERKSIGLIHQDNSTDAMEEIKKIFTPEFRNRLDNIIWFDHLSTDVIHQVVDKFIVELQVQLDQKGVSLEVSQEARNWLAEKGYDRAMGARPMARVIQDNLKKPLANELLFGSLVDGGQVTVALDKEKNELTYGFQSAQKHKAEAAH
For B1, the “pattern of β-casein degradation products (processivity)” value was “promoted processive degradation of β-casein”.
